Experiments:
L107A = target: T1, L107A (Homo sapiens, UniProt P18827); assay: alanine scan: flow cytometry on HEK-293T cells expressing the mutant clone, 4320 Fab 0.50 ug/mL, normalised to WT CD138; Range %WT Binding 13; Normalized 4320 vs. BB4 16.8
T1 construct: clone of the alanine scanning library on HEK-293T cells; m17 with one substitution; also called CD138 L107A
T1 sequence (CD138 (SDC1), full length, point mutant, looked up): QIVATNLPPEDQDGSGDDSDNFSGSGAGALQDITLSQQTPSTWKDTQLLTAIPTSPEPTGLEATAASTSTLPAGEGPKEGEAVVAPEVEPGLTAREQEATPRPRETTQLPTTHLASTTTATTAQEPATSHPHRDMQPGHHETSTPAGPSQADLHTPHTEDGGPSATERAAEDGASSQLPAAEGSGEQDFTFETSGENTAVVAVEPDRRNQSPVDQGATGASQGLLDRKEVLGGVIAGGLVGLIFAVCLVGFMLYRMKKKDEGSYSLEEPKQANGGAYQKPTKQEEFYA
Method: (§1) Serial dilutions of each MAb were tested for immunoreactivity against cells expressing target protein (WT) or vector alone. Validation of target expression and optimization of detection and binding of anti-CD138 antibodies both by flow cytometry was completed in replicate (N=4). The optimal screening concentration for each MAb was determined based on the raw signal values and signal-to-background calculations specifically optimized for each test article. Optimized parameters included the use of 10% goat serum as blocking reagent. Primary antibody staining was for 60 minutes at 25° C. Wash buffer include phosphate buffered saline (divalent metal ion free), pH 7.4. […] Secondary antibodies were diluted 1:400 and incubated for 30 minutes at 25° C.
(§2) Library screens of very-high-affinity mAbs can fail to yield critical residues for antibody binding due to deficiencies of such an assay to detect and differentiate critical vs. less critical binding based on affinity and quantification of cell binding. One common approach in the literature is the use of monovalent antibody derived fragments such as Fab usually weakens binding sufficiently to allow identification of critical residues for binding. […] Binding of each test Ab to each mutant clone in the alanine scanning library was determined, in duplicate, and likewise evaluated by flow cytometry.

G169A = target: T2, G169A (Homo sapiens, UniProt P18827); assay: alanine scan: flow cytometry on HEK-293T cells expressing the mutant clone, 4320 Fab 0.50 ug/mL, normalised to WT CD138; Range %WT Binding 2; Normalized 4320 vs. BB4 44.4
T2 construct: clone of the alanine scanning library on HEK-293T cells; m17 with one substitution; also called CD138 G169A
T2 sequence (CD138 (SDC1), full length, point mutant, looked up): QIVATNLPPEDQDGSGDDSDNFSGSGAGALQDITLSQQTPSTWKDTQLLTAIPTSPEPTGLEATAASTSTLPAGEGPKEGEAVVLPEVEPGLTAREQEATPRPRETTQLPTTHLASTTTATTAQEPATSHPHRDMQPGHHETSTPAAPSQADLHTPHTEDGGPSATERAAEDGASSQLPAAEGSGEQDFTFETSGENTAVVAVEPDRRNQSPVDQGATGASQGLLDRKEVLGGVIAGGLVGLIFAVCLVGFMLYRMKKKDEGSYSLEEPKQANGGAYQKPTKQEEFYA
Method: as §1, §2

V110A = target: T3, V110A (Homo sapiens, UniProt P18827); assay: alanine scan: flow cytometry on HEK-293T cells expressing the mutant clone, 4320 Fab 0.50 ug/mL, normalised to WT CD138; Range %WT Binding 2; Normalized 4320 vs. BB4 28.3
T3 construct: clone of the alanine scanning library on HEK-293T cells; m17 with one substitution; also called CD138 V110A
T3 sequence (CD138 (SDC1), full length, point mutant, looked up): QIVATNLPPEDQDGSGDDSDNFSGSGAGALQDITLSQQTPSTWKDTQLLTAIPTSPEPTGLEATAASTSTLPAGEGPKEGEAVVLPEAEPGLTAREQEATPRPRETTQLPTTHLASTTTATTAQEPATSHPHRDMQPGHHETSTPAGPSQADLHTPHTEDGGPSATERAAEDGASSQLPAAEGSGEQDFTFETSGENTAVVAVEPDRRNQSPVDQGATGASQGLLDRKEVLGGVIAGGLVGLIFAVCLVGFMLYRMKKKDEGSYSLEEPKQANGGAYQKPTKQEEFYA
Method: as §1, §2

P167A = target: T4, P167A (Homo sapiens, UniProt P18827); assay: alanine scan: flow cytometry on HEK-293T cells expressing the mutant clone, 4320 Fab 0.50 ug/mL, normalised to WT CD138; Range %WT Binding 46; Normalized 4320 vs. BB4 50.9
T4 construct: clone of the alanine scanning library on HEK-293T cells; m17 with one substitution; also called CD138 P167A
T4 sequence (CD138 (SDC1), full length, point mutant, looked up): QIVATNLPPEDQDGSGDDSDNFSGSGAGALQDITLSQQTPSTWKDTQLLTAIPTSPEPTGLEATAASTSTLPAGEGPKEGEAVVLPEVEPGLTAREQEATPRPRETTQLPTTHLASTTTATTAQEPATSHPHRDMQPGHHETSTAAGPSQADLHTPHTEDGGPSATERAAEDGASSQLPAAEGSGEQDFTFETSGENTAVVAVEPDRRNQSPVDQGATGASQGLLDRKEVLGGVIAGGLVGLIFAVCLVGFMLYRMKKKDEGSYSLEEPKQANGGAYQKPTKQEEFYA
Method: as §1, §2

G241A = target: T5, G241A (Homo sapiens, UniProt P18827); assay: alanine scan: flow cytometry on HEK-293T cells expressing the mutant clone, 4320 Fab 0.50 ug/mL, normalised to WT CD138; Range %WT Binding 14; Normalized 4320 vs. BB4 53.5
T5 construct: clone of the alanine scanning library on HEK-293T cells; m17 with one substitution; also called CD138 G241A
T5 sequence (CD138 (SDC1), full length, point mutant, looked up): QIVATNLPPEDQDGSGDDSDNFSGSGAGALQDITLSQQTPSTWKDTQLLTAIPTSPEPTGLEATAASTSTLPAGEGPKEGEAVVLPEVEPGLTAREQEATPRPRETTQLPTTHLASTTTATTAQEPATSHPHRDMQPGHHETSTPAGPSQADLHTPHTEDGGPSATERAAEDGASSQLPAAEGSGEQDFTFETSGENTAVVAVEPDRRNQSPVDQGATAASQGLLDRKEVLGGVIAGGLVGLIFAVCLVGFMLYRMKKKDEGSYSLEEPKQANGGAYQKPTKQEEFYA
Method: as §1, §2

Mean %WT Binding (L107A): 18.2 %WT | Mean %WT Binding (G169A): 13.2 %WT | Mean %WT Binding (V110A): 21.9 %WT | Mean %WT Binding (P167A): 56.4 %WT | Mean %WT Binding (G241A): 53.5 %WT
B1: Fab fragment of mAb 4320 (Fab, V domains shown)
VH: QVQLVQSGAEVKKPGASVKVSCKASGYSFSSYYMHWVRQAPGQGLEWMGTIHPSDSTTNYNQKFQGRVTMTVDTSTRTAYMELSSLRSEDTAVYYCANFVYWGQGTTVTVSS
VL: DIVMTQTPLSLSVTPGQPASISCKSSKSLLYKDGKTYLNWFLQKPGQSPQLLIYVVSTRASGVPDRFSGSGSGTDFTLKISRVEAEDVGVYYCQQLVEYPYTFGQGTKLEIKR
modifications: N-terminal Q1 observed as pyroglutamic acid (PCA) in the 138-2-5 complex
notes: In the crystal structures heavy chain residues 1-213 were traced; also called Fab4320
